B1: TrwF/VirB9 (natural protein, plasmid R388)
chain: LDVPSSSRYDHRIRYVTYNPADVVQVDTVLGVATHIMLEEGEQYLTHAFGIPKPMPLPGRAGIFLSSRTAELANTNLIVVTDRRSYKFRLQMRNDRNGAMYELAFRYPDTQARQTREANARAAVEAAFEQRVGAYYNLKYMMSGDKDIAPVNAWDDGRFTYFKFSANADLPSIYFVDAEGNESLVPRTTVGSSNNIIAVHKVNPKWMIRLGNRALAIFNEAYDPNGVPNDTGTASPAVRRVNKGGN
B2: TrwI/VirB6 (natural protein, plasmid R388)
chain: MAFELFTPLFNKIDQTTATYVTDISSRAIAAITPVVSVGLTLGFITYGWLIIRGAVEMPVAEFLNRCLRIGIIVSIALAGGLYQGEIANAITTVPDELASALLGNPTEGASAAALVDQSAQQGFDRASEAFEEAGFFSSDGLLYGLFGIIIPAGYGPAGAIGGAFLLLAKIALALLAGLGPLFILALIWQPTHRFFDQWAQQVLNYGLLIVLFAAVFGLLMQIFGSYMADLRFDGAQNVAYAIGGSVILSIVSIVLLMQLPSIASGLAGGIGLGYMWELRSMRSGAGAAMRGGRAMARGARAAPGAARGAAVGAANMAKTVATGGAGVARAAAGYFRGRKAG
B3: TrwG/VirB8 (natural protein, plasmid R388)
chain: MSKKQPKPVKAEQLKSYYEESRGLERDLIGEFVKSRKTAWRVATASGLFGLLGMVCGIVGFSQPAPAPLVLRVDNATGAVDVVTTLREHESSYGEVVDTYWLNQYVLNREAYDYNTIQMNYDTTALLSAPAVQQDYYKLFDGSNARDRVLGNKARITVRVRSIQPNGRGQATVRFTTQQHNSNGTVERPQHQIATIGYTYIGAPMRSSDRLLNPLGFQVTSYRADPEILNN
B4: TrwJ/VirB5 (natural protein, plasmid R388, UniProt O50331 23-226, looked up)
chain: QGIPVFDGTRALDFVQQFARMKEQLDTAKDQLAEAQRMYEAVTGGRGLGDLMRNAQLREYLPDDLRTVYDSANGGGYSGISGSINDILRDERLNGSVADMRRSIEERSRTARTTDKAVGCGPTKGHSNASRRLKDEISRTQDQKAIEELQARIAGEQAAIQNETTKLQMIAQLRQAEQALISEQRRERNMPILSSGNQGMPTIQ

What was measured:
Assay in all cases: cryo-EM structure
[1] = molecular target: T1, TrwE/VirB10 (plasmid R388, UniProt O50337 1-395)
T1 sequence: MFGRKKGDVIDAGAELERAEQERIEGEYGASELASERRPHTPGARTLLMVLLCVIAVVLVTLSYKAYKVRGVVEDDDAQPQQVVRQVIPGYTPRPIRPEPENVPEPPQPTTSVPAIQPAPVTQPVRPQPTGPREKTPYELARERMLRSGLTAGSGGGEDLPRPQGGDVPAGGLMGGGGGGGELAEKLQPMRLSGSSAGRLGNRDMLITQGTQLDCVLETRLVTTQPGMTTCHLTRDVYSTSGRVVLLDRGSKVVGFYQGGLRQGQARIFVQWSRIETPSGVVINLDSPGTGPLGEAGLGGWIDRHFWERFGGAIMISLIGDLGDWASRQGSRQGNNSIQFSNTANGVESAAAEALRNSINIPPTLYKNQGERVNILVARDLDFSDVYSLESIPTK

[2] = molecular target: the molecule itself
[3] = molecular target: B2

| Binder | binding result [1] | stoichiometry N [2] | binding result [3] |
| --- | --- | --- | --- |
| B1 | binds |  |  |
| B2 | binds |  |  |
| B3 | binds | 24 |  |
| B4 |  |  | binds |

— article doi:10.1101/2024.02.08.579498 (bioRxiv, 2024)
